Reference: patent publication US20200277405A1, “COMPOSITION FOR ANTIBODY-DRUG CONJUGATE DIRECTED AGAINST TUMOR-CELL ASSOCIATED POLYSIALIC ACID” (Cornell University, priority 2019, published 2020)
“Also recorded” adds a separate entry of the source.

What was measured:
NCAM = NCAM (Homo sapiens, UniProt P13591); settings: Target NCAM; literature; cited from earlier work
[1] = biological target: chicken brain-derived polysialylated neural cell adhesion molecule (NCAM) (chicken) (UniProt P13590); test: SPR (Biacore 3000), antibody captured on Protein A chip, NCAM 0.25-250 nM in solution, equilibrium fit with Hill slope
[2] = biological target: chicken brain-derived polysialylated neural cell adhesion molecule (NCAM) (chicken) (UniProt P13590); test: ELISA, chicken brain NCAM coated on the plate, ch735 titrated, anti-human IgG secondary, Abs370
[3] = biological target: chicken brain-derived polysialylated neural cell adhesion molecule (NCAM) (chicken) (UniProt P13590); test: ELISA, NCAM coated on the plate, ch735 titrated (x axis 'ch735 [ng/mL]'), HRP secondary, Abs450
[4] = biological target: chicken brain-derived polysialylated neural cell adhesion molecule (NCAM) (chicken) (UniProt P13590); test: ELISA, chicken brain NCAM coated on the plate, mo735 titrated, anti-mouse IgG secondary, Abs370
[5] = system: MCF7 (polySia negative externally) cells; test: Internalization of scFv735, MCF7; assay type: cell-based, human; settings: MCF7, 2 hours, 0-1,000 nM
Excerpt: (§1) FIG. 15 depicts cellular internalization of a polySia-specific single-chain Fv (scFv735) constructed by genetically fusing together the DNA encoding the variable heavy (VH) and variable light (VL) genes derived from mo735 with a flexible GlySer linker.
(§2) A polySia-specific single-chain […] (scFV735) was constructed by genetically fusing together the DNA encoding the variable heavy (VH) and variable light (VL) genes derived from mo735 with a flexible GlySer linker. Alexa Fluor 488 labeled scFv735 was incubated with SW2 (polySia positive externally) and MCF7 (polySia negative externally) cells for 2 hours at different concentrations ranging from 0-1,000 nM at either 4° C. or 37° C. (internalization). After incubation, the cells were washed and extracellular fluorescence was quenched with 0.2% Trypan Blue. Intracellular Fluoresence (geometric mean fluorescence intensity, MFI) indicative of internalized scFv735 was measured by flow cytometery.

[6] = system: SW2 (polySia positive externally) cells; test: Internalization of scFv735, SW2; assay type: cell-based, human
Excerpt: as §1, §2

[7] = Nagae et al.; cited from earlier work

B1: Lorvotuzumab DM1: CD56-targeting antibody-drug conjugate, literature (conjugate, chains of the INN, looked up)
VH: QVQLVESGGGVVQPGRSLRLSCAASGFTFSSFGMHWVRQAPGKGLEWVAYISSGSFTIYYADSVKGRFTISRDNSKNTLYLQMNSLRAEDTAVYYCARMRKGYAMDYWGQGTLVTVSS
VL: DVVMTQSPLSLPVTLGQPASISCRSSQIIIHSDGNTYLEWFQQRPGQSPRRLIYKVSNRFSGVPDRFSGSGSGTDFTLKISRVEAEDVGVYYCFQGSHVPHTFGQGTKVEIK
modifications: DM1 mertansine payload
notes: CD56-targeting antibody-drug conjugate, literature
EC50 (NCAM): 0.2 to 5 nM

B2: chimeric human IgG1 mAb ch735 (antibody, V domains shown)
VH: QIQLQQSGPELVRPGASVKISCKASGYTFTDYYIHWVKQRPGEGLEWIGWIYPGSGNTKYNEKFKGKATLTVDTSSSTAYMQLSSLTSEDSAVYFCARGGKFAMDYWGQGTSVTVSS
VL: DVVMTQTPLSLPVSLGDQASISCRSSQSLVHSNGNTYLYWYLQKPGQSPKPLIYRVSNRFSGVPDRFSGSGSGTDFTLKISRVEAEDLGVYFCFQGTHVPYTFGGGTRLEIK
Kd [1]: 4.79 nM
EC50 (read off the curve) [2]: 10 ng/mL
EC50 (read off the curve) [3]: 10 ng/mL

B3: mouse IgG2a mAb 735 (mo735) (antibody, V domains shown)
VH: QIQLQQSGPELVRPGASVKISCKASGYTFTDYYIHWVKQRPGEGLEWIGWIYPGSGNTKYNEKFKGKATLTVDTSSSTAYMQLSSLTSEDSAVYFCARGGKFAMDYWGQGTSVTVSS
VL: DVVMTQTPLSLPVSLGDQASISCRSSQSLVHSNGNTYLYWYLQKPGQSPKPLIYRVSNRFSGVPDRFSGSGSGTDFTLKISRVEAEDLGVYFCFQGTHVPYTFGGGTRLEIK
Kd [1]: 10.2 nM
EC50 (read off the curve) [4]: 10 ng/mL

B4: scFv735: polySia-specific single-chain Fv fusing VH and VL of mo735 with a flexible GlySer linker (protein)
scFv: DVVMTQTPLSLPVSLGDQASISCRSSQSLVHSNGNTYLYWYLQKPGQSPKPLIYRVSNRFSGVPDRFSGSGSGTDFTLKISRVEAEDLGVYFCFQGTHVPYTFGGGTRLEIKGGGGSGGGGSGGGGSQIQLQQSGPELVRPGASVKISCKASGYTFTDYYIHWVKQRPGEGLEWIGWIYPGSGNTKYNEKFKGKATLTVDTSSSTAYMQLSSLTSEDSAVYFCARGGKFAMDYWGQGTSVTVSS
internalization (intracellular fluorescence) [5]: not
internalization (intracellular fluorescence) ([6]; SW2, 2 hours, 0-1,000 nM, 37° C.): observed to internalize; also recorded: increase with increasing concentration
internalization (intracellular fluorescence) ([6]; temperature reduced to 4° C.): blocked
degree of polymerization (DP) of shorter sialic acids bound [7]: ~3
